Molecular target: T1, glycosyltransferase EryCIII (UniProt A4F7P3 1-421)
T1 construct: EryCIII, glycosyltransferase that attaches TDP-D-desosamine to 3-alpha-mycarosylerythronolide B in erythromycin D biosynthesis; printed mass 48.1 kDa (47,961 Da measured, loss of the N-terminal methionine); Se-Met-labelled protein was used for phasing; also called GT EryCIII; source: E. coli BL21 (DE3) codon plus RP, co-expressed with the S. coelicolor chaperonins GroEL1, GroES and GroEL2, …
T1 sequence (looked up): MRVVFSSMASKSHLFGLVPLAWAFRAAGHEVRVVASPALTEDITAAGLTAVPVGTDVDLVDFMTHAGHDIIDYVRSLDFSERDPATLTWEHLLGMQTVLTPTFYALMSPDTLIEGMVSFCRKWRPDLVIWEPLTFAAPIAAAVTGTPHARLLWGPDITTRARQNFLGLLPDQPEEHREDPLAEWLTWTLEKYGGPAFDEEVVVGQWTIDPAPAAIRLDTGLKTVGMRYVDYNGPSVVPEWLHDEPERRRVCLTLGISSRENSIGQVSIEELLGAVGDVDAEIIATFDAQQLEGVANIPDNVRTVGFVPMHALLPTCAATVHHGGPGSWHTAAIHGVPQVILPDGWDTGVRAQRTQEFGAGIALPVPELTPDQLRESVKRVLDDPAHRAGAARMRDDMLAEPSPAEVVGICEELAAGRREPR
Experiment: AUC; sedimentation velocity of the co-expressed, co-purified EryCIII·EryCII complex in 2 mM DTT, 293 K, 50,000 r.p.m.; c(S) and c(M) analysis, taken together with band intensities on a denaturing polyacrylamide gel
Conditions: both partners purified

B1: EryCII, activating P450 homologue (auxiliary protein) of EryCIII (natural protein)
chain: MTTTDRAGLGRQLQMIRGLHWGYGSNGDPYPMLLCGHDDDPQRRYRSMRESGVRRSRTETWVVADHATARQVLDDPAFTRATGRTPEWMRAAGAPPAEWAQPFRDVHAASWEGEVPDVGELAESFAGLLPGAGARLDLVGDFAWQVPVQGMTAVLGAAGVLRGAAWDARVSLDAQLSPQQLAVTEAAVAALPADPALRALFAGAEMTANTVVDAVLAVSAEPGLAERIADDPAAAQRTVAEVLRLHPALHLERRTATAEVRLGEHVIGEGEEVVVVVAAANRDPEVFAEPDRLDVDRPDADRALSAHRGHPGRLEELVTALATAALRAAAKALPGLTPSGPVVRRRRSPVLRGTNRCPVEL
notes: printed mass 40.7 kDa; also called helper protein
- stoichiometry N: 1
